Where two headings read alike, the source gives them in different places.

Assay [1] concerns the target T1, human protein C (PC) zymogen (human, UniProt P04070 43-197; P04070 200-461).
T1 construct: Bought
In words: ELISA screen, PC-coated wells, OD450, n=2 [Continued].

For assay [2], the target named is T2, human APC-PPACK (active site-blocked APC) (human, UniProt P04070 43-461, active site bound by the tripeptide inhibitor Phe-Pro-Arg-chloromethylketone (PPACK)).
T2 construct: Bought (Haematologic Technologies)
In words: ELISA.

Assay [3] has as its target T1, human protein C (PC) zymogen. In words: ELISA screen, PC-coated wells, OD450, n=2 [Continued]. This is another data set of the same source. Background: In an ELISA, binding on a coated surface is turned into a signal by an enzyme label.

T1 sequence (P04070 43-197, chain 1 of 2): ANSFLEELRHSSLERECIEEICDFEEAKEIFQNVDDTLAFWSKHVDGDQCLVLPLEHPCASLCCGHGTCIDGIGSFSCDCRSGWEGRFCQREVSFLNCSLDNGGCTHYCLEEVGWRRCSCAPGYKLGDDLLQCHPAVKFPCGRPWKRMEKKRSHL
T1 sequence (P04070 200-461, chain 2 of 2): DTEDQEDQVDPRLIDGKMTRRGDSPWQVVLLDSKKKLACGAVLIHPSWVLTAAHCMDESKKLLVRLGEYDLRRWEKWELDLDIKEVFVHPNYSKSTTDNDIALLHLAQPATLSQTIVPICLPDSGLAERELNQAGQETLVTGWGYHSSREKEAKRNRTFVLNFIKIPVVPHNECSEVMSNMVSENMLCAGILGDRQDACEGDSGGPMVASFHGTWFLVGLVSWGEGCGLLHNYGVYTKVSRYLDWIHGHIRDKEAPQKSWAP
T2 sequence (P04070 other isoform, or with tags, fused parts or gaps): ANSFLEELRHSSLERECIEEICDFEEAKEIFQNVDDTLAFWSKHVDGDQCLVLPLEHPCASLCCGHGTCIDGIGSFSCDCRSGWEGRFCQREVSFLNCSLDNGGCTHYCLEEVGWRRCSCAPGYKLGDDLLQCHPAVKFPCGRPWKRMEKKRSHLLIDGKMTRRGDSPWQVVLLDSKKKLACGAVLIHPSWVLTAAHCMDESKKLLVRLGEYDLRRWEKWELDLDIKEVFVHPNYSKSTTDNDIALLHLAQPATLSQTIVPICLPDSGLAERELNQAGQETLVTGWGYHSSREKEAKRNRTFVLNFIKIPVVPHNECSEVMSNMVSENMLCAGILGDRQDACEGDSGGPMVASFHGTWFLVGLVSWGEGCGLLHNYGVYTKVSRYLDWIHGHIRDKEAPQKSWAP

B1: SR16983-R2-P4-E11 (VHH)
VHH: QLQLVESGGGLVQAGGSLRLSCAASGTTFSFVYMGWYRQAPGNQRDLVARISRDGSTNYLDSVKGRFTISGDNAKNTVYLQMNSLKPEDTARYYCFYNGHLNKWGRGTQVTVSS
On to B1, for which the binding result is recorded as “no binding” in assay [1] and “binds” in assay [2].

B2: SR16983-R3-P4-E11 (VHH)
VHH: QLQLVEFGGGLVQAGGSLRLSCAASGSTFSFNYMGWYRQAPGNQRDLVARISSGGITNYADSVKGRFTISGDNAKNTVYLQMNSLKPEDTARYYCFYNGYLNKWGQGTQVTVSS
As for B2, the binding result in assay [1] is listed as “no binding”; in assay [2], “binds”.

B3: SR16983-R3P2D01 (VHH)
VHH: QLQLVESGGGLVQAGGSLRLSCAASGTTSSFVYMGWYRQAPGNQRDLVARISSDGSTNYADSVKGRFTISGDNAKNTVYLQMNSLKPEDTARYYCFYNGHVNKWGQGTQVTVSS
On to B3, for which the values for the binding result in assay [1] and in assay [2] were “no binding” and “binds”, respectively.

B4: SR16983-R2-P4-F09 (VHH)
VHH: QVQLVESGGGLVQAGGSLRLSCAASGFTFDDYAIGWFRQAPGKEREGIACRSTDGSTYYADSVEGRFTISSDNAKRTVYLQMNSLKPGDTAVYYCAADLMGVHRRCSGYLNLEYGMDYWAKGTLVTVSS
For B4, the binding result in assay [2] is recorded as “binds”; in assay [3], “no binding”.

B5: SR16983-R2-P4-E08 (VHH)
VHH: QLQLVESGGGLVQAGGSLTLSCAASGFTLDDYAIGWFRQAPGKEREGVSCIATSDGSTYYADSVKGRFTISSDNAKNTVYLQMNSLKPEDTAVYYCARGGLLLPKPELFDFRGQGTQVTVSP
Consider B5, for which the binding result in assay [1] is listed as “no binding”; in assay [2] it was “binds”.

B6: SR16983-R2-P4-C02 (VHH)
VHH: QVQLVESGGGLVQAGGSLRLSCTTSGSTFSITAGGWYRQAPGKQRELVADIANDGSTTSADSVKGRFTISRDNAKNTVELQMSSLKLEDTAVYYCFVVGKSDSMPRARAYWGQGTQVTVSS
Take B6: the binding result is recorded as “no binding” in assay [1] and “binds” in assay [2].

B7: SR16983-R3-P5-D08 (VHH)
VHH: EVQLVESGGGLVQAGGSLRLSCTGSGSTFSVTAGGWYRQAPGKQRELVADIANDGSTTYLDFVKGRFTISRDNAKNSVDLQMNSLKPEDTAVYYCFVVGISDSTPRPRAYWGQGTQVTVSS
On to B7, for which the results for the binding result in assay [1] and in assay [2] were “no binding” and “binds”, respectively.

B8: SR16983-R3P2H09 (VHH)
VHH: EVQLVESGGGLVQAGGSLRVSCTTSGSTFSITAGGWYRQTPGKERELVADIANDGSTTYANSVKGRFTISRDNAKNTVELQMSSLKLEDTAAYRCFVVGISDSMPRPRAYWGQGTQVTVSS
As to B8, the binding result in assay [1] is “no binding”; in assay [2], “binds”.

B9: SR16983-R3P2F4 (VHH)
VHH: QLQLVESGGGLVQAGGSLRLSCAASGRIFGTYVMGWFRQAPGKEREFVAAVSRSTGSTYADSVKGRFTISRDDAKNMLYLQMNNLRPEDTAIYYCATRASINYNYANWPYWGQGTQVTVSS
Turning to B9, the binding result was “binds” in assay [2] and “no binding” in assay [3].

B10: SR16983-R2-P4-F01 (VHH)
VHH: QLQLVESGGGLVQAGGSLRLSCAASGRTFVGSYVMGWFRQAPGKAREFVAASSRSTGNTVYLDAVKGRFTVSRDDAKNTLYLQMSSLKPEDTAVYYCATRASINYNYANWPYWGQGTQVTVSS
Take B10: the binding result in assay [1] is reported as “no binding”; in assay [2], “binds”.

B11: SR16983-R3P2A08 (VHH)
VHH: QLQLVESGGGLVQPGGSLRLSCAASGFTFSTKWMYWVRQGPGKGLERVAAIDASGGSTYYADSVKGRFTISRDNSENTVYLQMNSLESADTAVYYCARSEGGLFRGRGTQVTVSA
For B11, the binding result in assay [1] is on record as “no binding”; in assay [2], “binds”.

B12: SR16983-R2-P3-F01 (VHH)
VHH: EVQLVESGGGLVQPGGSLRLSCAASGFTFSTKWMYWVRQGPGKGLEWVSTIDASGGSTYYADSVKGRFTISRDNTEKKVYLQMNSLESADTAVYYCVRSAGGQFRGRGTQVTVSS
For B12, the binding result is on record as “no binding” in assay [1] and “binds” in assay [2].

B13: SR16983-R2-P3-F10 (VHH)
VHH: QVQLVESGGGLVQPGGSLRLSCKASGFTFSTKWMYWVRQGPGKGLERVAAIDASGGSTYYADSVKGRFTISRDNSDNTVYLQMNSLESADTAVYYCARSEGGQFRGQGTQVTVSS
For the molecule B13, the binding result is recorded as “no binding” in assay [1] and “binds” in assay [2].

B14: SR16983-R3P2A5 (VHH)
VHH: QLQLVESGGGLVQPGGSLRLSCAASGFTFSTKWMYWVRQGPGKGLERVAAIDASGGSTYYADSVKGRFTISRDNSENTLYLQMNSLESADTAVYYCARSEGGLFRGRGTQVTVSA
For B14, the figures for the binding result in assay [1] and in assay [2] were “no binding” and “binds”, respectively.

B15: SR16983-R2P1C12 (VHH)
VHH: QVQLVESGGGLVQPGGSLRLSCAASGFTFSMKWMYWVRQGPGKGLEWVSTIDTSGSSTYYADSVKGRFTISRDNSKNTVYLQMNSLESADTAVYYCARSAGGLFRGRGTQVTVSS
Regarding B15, the binding result in assay [1] is “no binding”; in assay [2], “binds”.

B16: SR16983-R2-P4-G08 (VHH)
VHH: EVQLVESGGGLVQAGGSLRLSCAASGLTSSTYAMAWFRQAPGKEREFVSVIDWRGSTTYTNSVKGRFTISRDNGKNTVYLQMNSLQPEDTALYYCAARASPGYVGSLYPYWGRGTQVTVSS
With B16, the figures for the binding result in assay [1] and in assay [2] were “no binding” and “binds”, respectively.

B17: SR16983-R3-P2-B05 (VHH)
VHH: QLQLVESGGGLVQAGGSLRLSCAASGTTSSLNLMGWYRQAPGKKRESVAHMTSDGRTDYVDSVKGRFTISRDNSKNTVYLQMNNLKPEDTAVYICYANPFLGSWSNYWGQGTQVTVSS
notes: The cell prints 55 (a CDR1 entry); to be checked
In the case of B17, in assay [1], the binding result is given as “no binding”.

B18: SR16983-R4-P1-A12 (VHH)
VHH: QLQLVESGGGLVQAGGSLRLSCAASGTTSSLNLMGWYRQAPGKKRESVAHMTSDGDTDYVDSVKGRFTISRDNSKNTVYLQMNNVKPEDTAVYYCYANPFLGSWSNYWGQGTQVTVSS
In the case of B18, the values for the binding result in assay [2] and in assay [3] were “binds” and “no binding”, respectively.

B19: SR16983-R2-P4-H08 (VHH)
VHH: QLQLVESGGGLMQAGGSLRLSCAASGTTSSLNLMGWYRQAPGKKRESVAHMTSDGRTDYTDSVKGRFTISRDNSKNTVYLQMNNLKPEDTAVYYCYANPFLGSWSNYWGQGTQVTVSS
B19: the values for the binding result in assay [2] and in assay [3] were “binds” and “no binding”, respectively.

B20: SR16983-R2-P3-B01 (VHH)
VHH: QLQLVESGGGLVQAGGSLRLSCAASGRTFGTYVIGWFRQAPGKEREFVAAFSRSTGNTVYPDSVKGRFTISRDDAKNTVTLQMNSLKPEDTAVYYCAARASINYNYANWPYWGQGTQVTVSS
Take B20: the binding result in assay [1] is reported as “no binding”; in assay [2], “binds”.

B21: SR16983-R2-P3-E06 (VHH)
VHH: QLQLVESGGGLVQAGGSLRLSCVASGRTVGSYAVAWFRQAPGKERELLAASSRSTGNTVYADSVKGRFTIARDDAKNTLYLQMNSLKPEDTAVYYCAARASINYNYANWPYWGQGTQVTVSS
As to B21, the binding result in assay [1] is “no binding”.

B22: SR16983-R2-P3-F12 (VHH)
VHH: QVQLVESGGGLVQAGGSLRLSCAASGRTFGTYVMGWFRQAPGKEREFVAAFSRSTGSTTYADSVKGRFTISRDDAKNTLYLQMNSLKPEDTAVYYCATRASINYNYANWPYWGQGTQVTVSS
As to B22, the binding result is “no binding” in assay [1] and “binds” in assay [2].

B23: SR16983-R3-P5-G12 (VHH)
VHH: QLQLVESGGGLVQAGGSLRLSCVASGRTVGSYAVAWFRQAPGKERELLAASSRSTGNTVYADSVKGRFTIARDDAKNTLYLQMNSLKPEDTAVYYCAARASINYNYANWPYWGQGTQVTVSS
Turning to B23, the binding result in assay [1] is “no binding”.

B24: SR16983-R2-P3-E04 (VHH)
VHH: QLQLVESGGGLVQAGGSLRLSCAASGRTVGSYVMGWFRQAPGKEREFLAASSRSTGNTVYADSVKGRFSISRDDAKNTLYLQMNSLKPEDTAVYYCATRASINYNYANWPYWGQGTQVTVSS
Regarding B24, the binding result is “no binding” in assay [1] and “binds” in assay [2].

B25: SR16983-R4-P1-C10 (VHH)
VHH: QVQLVESGGGLVQAGGSLRLSCVAYGSTFSINVFAWYRQAPGEQRELGELVAFIGRSGTTKYGDSVKGRFTISRDNAKNTVYLQMDSLRPEDTAVYYCNLGDYWGQGTQVTVSS
With B25, the binding result in assay [1] was “no binding”; in assay [2], “binds”.

B26: SR16983-R3-P3-G04 (VHH)
VHH: QLQLVESGGGLVQAGGSLRLSCTASGSTVRVTAGGWYRQAPGNERELVADIDNGGRPTYADSVKGRFTISRDNAKNAVDLQMNNLKPEDTAVYYCFVIAIPDSAPRPRAYWGQGTQVTVSS
For the molecule B26, the binding result in assay [1] was “no binding”; in assay [2], “binds”.

B27: SR16983-R3-P4-G09 (VHH)
VHH: QLQLVESGGGLVQAGGSLRLSCAASGSTVRVTAGGWYRQTPGNERELVADIDNGGSTTYADSVKGRFTISRDNAKNAVDLQMNSLKPEDTAVYRCFVIAIPDSAPRPRSYWGQGTEVTVSS
As for B27, the binding result in assay [1] is listed as “no binding”; in assay [2], “binds”.

These data come from US20250163183A1 (COAGULANT THERAPEUTICS, published 2025).
